# Test results as given in PMC5500003, “RNA stores tau reversibly in complex coacervates”.
# Biological target: tau 4R2N (Homo sapiens, UniProt P10636-8 1-441)
# Test: EMSA; Hill coefficient 2.6; EMSA: 100 mM sodium acetate pH 7.0, 0.5 mM EDTA, 0.5 mM MgCl2, 0.01% IGEPAL CA-630, RNase inhibitor, 37 C 10 min, TBE 8% gel; ITC: 20 mM ammonium acetate pH 7
# Details: protein: recombinant; chain copies: 2; label: 3' biotin kit RNA
# tau 4R2N, sequence (P10636 other isoform, or with tags, fused parts or gaps): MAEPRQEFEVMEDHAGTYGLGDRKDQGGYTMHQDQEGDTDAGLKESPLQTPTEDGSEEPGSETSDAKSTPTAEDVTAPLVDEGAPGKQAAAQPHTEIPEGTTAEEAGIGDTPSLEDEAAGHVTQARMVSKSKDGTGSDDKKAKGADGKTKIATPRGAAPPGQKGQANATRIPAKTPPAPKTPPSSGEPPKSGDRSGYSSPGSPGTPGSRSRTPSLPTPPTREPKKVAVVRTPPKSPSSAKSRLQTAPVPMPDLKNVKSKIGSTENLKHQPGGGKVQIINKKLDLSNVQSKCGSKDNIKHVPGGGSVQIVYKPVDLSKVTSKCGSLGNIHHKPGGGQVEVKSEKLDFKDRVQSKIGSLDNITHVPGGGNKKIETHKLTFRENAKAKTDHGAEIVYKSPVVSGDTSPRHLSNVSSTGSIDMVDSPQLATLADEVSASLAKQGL
binder,measurement,value
CCUGGUUUUUAAGGAGUGUCGCCAGAGUGCCGCGAAUGAAAAA (ssRNA) [RNA43],Kd,832 ± 94 nM
